Here are results for 55 variants from article PMC13397619.

B1: NLV2 TCR alpha chain (CDR3α only) (parent)
chain: AGPMKTSYDKVI
partner: MLVPMVATV

Variants of B1 are the subject of the assay. Description: T-Switch: Jurkat TCRβ−/− cells expressing a CDR3 saturation-mutagenesis library, stained with two peptide-HLA-A*02:01 tetramers (original and novel peptide) plus anti-CD3, FACS-sorted into four gates, gDNA sequenced. The following applies: with HLA-A*02:01 with peptide … (NLV 3-1, the novel peptide), tetramers 1 µg/mL, 30 min on ice, SP, DP and SW gates expanded about 10 days between rounds ('two to three rounds of selection' in the Methods), gate SW: higher = more of the variant in the gate that binds the novel peptide and not the original one = switched binding. Fold enrichment of the CDR3 variant in one FACS gate of a two-tetramer stain, unresolved parent, parent is a CDR3 fragment, scale: fold enrichment, numbering: sequential-on-construct, sequence starts at 1.
Regarding […] (CDR3 as printed); Y8P derived by comparing it with the table's wild-type CDR3 AGPMKTSYDKVI, the enrichment turned out to be 0.

Consider […] (CDR3 as printed); T6K derived by comparing it with the table's wild-type CDR3 AGPMKTSYDKVI, for which the enrichment stood at 0.282.

On to […] (CDR3 as printed); S7A derived by comparing it with the table's wild-type CDR3 AGPMKTSYDKVI, for which the enrichment came to 0. As for […] (CDR3 as printed); T6C derived by comparing it with the table's wild-type CDR3 AGPMKTSYDKVI, the enrichment came to 0.

Regarding […] (CDR3 as printed); Y8H derived by comparing it with the table's wild-type CDR3 AGPMKTSYDKVI, the enrichment was determined as 0. As for […] (CDR3 as printed); S7P derived by comparing it with the table's wild-type CDR3 AGPMKTSYDKVI, the enrichment was determined as 0. Regarding […] (CDR3 as printed); P3W derived by comparing it with the table's wild-type CDR3 AGPMKTSYDKVI, the enrichment came to 0. In the case of […] (CDR3 as printed); M4S derived by comparing it with the table's wild-type CDR3 AGPMKTSYDKVI, the enrichment is 0.

Regarding […] (CDR3 as printed); T6Q derived by comparing it with the table's wild-type CDR3 AGPMKTSYDKVI, the enrichment was determined as 0. As for […] (CDR3 as printed); P3C derived by comparing it with the table's wild-type CDR3 AGPMKTSYDKVI, the enrichment is 0. For […] (CDR3 as printed); V11R derived by comparing it with the table's wild-type CDR3 AGPMKTSYDKVI, the enrichment was determined as 0. With […] (CDR3 as printed); M4T derived by comparing it with the table's wild-type CDR3 AGPMKTSYDKVI, the enrichment was 0.

As to […] (CDR3 as printed); P3R derived by comparing it with the table's wild-type CDR3 AGPMKTSYDKVI, the enrichment was 0.

[…] (CDR3 as printed); Y8D derived by comparing it with the table's wild-type CDR3 AGPMKTSYDKVI: the enrichment was 0.474. In the case of […] (CDR3 as printed); M4Y derived by comparing it with the table's wild-type CDR3 AGPMKTSYDKVI, the enrichment stood at 0.

[…] (CDR3 as printed); M4R derived by comparing it with the table's wild-type CDR3 AGPMKTSYDKVI: the enrichment was 0. In the case of […] (CDR3 as printed); P3N derived by comparing it with the table's wild-type CDR3 AGPMKTSYDKVI, the enrichment stood at 0. With […] (CDR3 as printed); V11F derived by comparing it with the table's wild-type CDR3 AGPMKTSYDKVI the figure was 0. Consider […] (CDR3 as printed); T6V derived by comparing it with the table's wild-type CDR3 AGPMKTSYDKVI, for which the enrichment was 0. Turning to […] (CDR3 as printed); P3T derived by comparing it with the table's wild-type CDR3 AGPMKTSYDKVI, the enrichment came to 0. As to […] (CDR3 as printed); V11D derived by comparing it with the table's wild-type CDR3 AGPMKTSYDKVI, the enrichment was 0. Turning to […] (CDR3 as printed); P3D derived by comparing it with the table's wild-type CDR3 AGPMKTSYDKVI, the enrichment is 0. The result for […] (CDR3 as printed); T6L derived by comparing it with the table's wild-type CDR3 AGPMKTSYDKVI reads 0; that for […] (CDR3 as printed); Y8L derived by comparing it with the table's wild-type CDR3 AGPMKTSYDKVI, 0. For the variant […] (CDR3 as printed); Y8F derived by comparing it with the table's wild-type CDR3 AGPMKTSYDKVI, the enrichment was determined as 0. As for […] (CDR3 as printed); P3S derived by comparing it with the table's wild-type CDR3 AGPMKTSYDKVI, the enrichment stood at 0. Regarding […] (CDR3 as printed); V11E derived by comparing it with the table's wild-type CDR3 AGPMKTSYDKVI, the enrichment worked out at 0. Regarding […] (CDR3 as printed); T6M derived by comparing it with the table's wild-type CDR3 AGPMKTSYDKVI, the enrichment was 0. As for […] (CDR3 as printed); S7N derived by comparing it with the table's wild-type CDR3 AGPMKTSYDKVI, the enrichment was determined as 0. Take […] (CDR3 as printed); T6S derived by comparing it with the table's wild-type CDR3 AGPMKTSYDKVI: the enrichment turned out to be 0.

For […] (CDR3 as printed); P3G derived by comparing it with the table's wild-type CDR3 AGPMKTSYDKVI, the enrichment stood at 0.

Regarding […] (CDR3 as printed); P3Q derived by comparing it with the table's wild-type CDR3 AGPMKTSYDKVI, the enrichment was 0. The result for […] (CDR3 as printed); V11M derived by comparing it with the table's wild-type CDR3 AGPMKTSYDKVI reads 0; that for […] (CDR3 as printed); Y8W derived by comparing it with the table's wild-type CDR3 AGPMKTSYDKVI, 0; that for […] (CDR3 as printed); S7T derived by comparing it with the table's wild-type CDR3 AGPMKTSYDKVI, 0. Consider […] (CDR3 as printed); S7C derived by comparing it with the table's wild-type CDR3 AGPMKTSYDKVI, for which the enrichment turned out to be 0. Consider […] (CDR3 as printed); P3M derived by comparing it with the table's wild-type CDR3 AGPMKTSYDKVI, for which the enrichment came out at 0. As for […] (CDR3 as printed); M4L derived by comparing it with the table's wild-type CDR3 AGPMKTSYDKVI, the enrichment turned out to be 0.

Regarding […] (CDR3 as printed); P3K derived by comparing it with the table's wild-type CDR3 AGPMKTSYDKVI, the enrichment worked out at 0. For the variant […] (CDR3 as printed); Y8M derived by comparing it with the table's wild-type CDR3 AGPMKTSYDKVI, the enrichment turned out to be 0. With […] (CDR3 as printed); Y8G derived by comparing it with the table's wild-type CDR3 AGPMKTSYDKVI, the enrichment was found to be 0. For […] (CDR3 as printed); M4W derived by comparing it with the table's wild-type CDR3 AGPMKTSYDKVI, the enrichment is 0. On to […] (CDR3 as printed); S7K derived by comparing it with the table's wild-type CDR3 AGPMKTSYDKVI, for which the enrichment is 0. […] (CDR3 as printed); T6P derived by comparing it with the table's wild-type CDR3 AGPMKTSYDKVI: the enrichment is 0.

As to […] (CDR3 as printed); Y8K derived by comparing it with the table's wild-type CDR3 AGPMKTSYDKVI, the enrichment is 0.

In the case of […] (CDR3 as printed); P3E derived by comparing it with the table's wild-type CDR3 AGPMKTSYDKVI, the enrichment came out at 0. […] (CDR3 as printed); S7I derived by comparing it with the table's wild-type CDR3 AGPMKTSYDKVI: the enrichment came to 0.

On to […] (CDR3 as printed); V11A derived by comparing it with the table's wild-type CDR3 AGPMKTSYDKVI, for which the enrichment came out at 0. Take […] (CDR3 as printed); Y8Q derived by comparing it with the table's wild-type CDR3 AGPMKTSYDKVI: the enrichment came to 27.8. On to […] (CDR3 as printed); V11Q derived by comparing it with the table's wild-type CDR3 AGPMKTSYDKVI, for which the enrichment is 0.

On to […] (CDR3 as printed); V11K derived by comparing it with the table's wild-type CDR3 AGPMKTSYDKVI, for which the enrichment was found to be 0.

As to […] (CDR3 as printed); T6W derived by comparing it with the table's wild-type CDR3 AGPMKTSYDKVI, the enrichment worked out at 0. On to […] (CDR3 as printed); P3A derived by comparing it with the table's wild-type CDR3 AGPMKTSYDKVI, for which the enrichment was 0. As for […] (CDR3 as printed); T6N derived by comparing it with the table's wild-type CDR3 AGPMKTSYDKVI, the enrichment came out at 0. On to […] (CDR3 as printed); Y8I derived by comparing it with the table's wild-type CDR3 AGPMKTSYDKVI, for which the enrichment is 0.
